# Measured values as given in patent publication US20240327535A1 (EISAI R AND D MANAGEMENT, published 2024).
# T1: extracellular domain of human BCMA (human, UniProt Q02223 1-54)
# T1 construct: amine-linked to Octet AR2G tips; also called hsBCMA; BCMA (human)
# T1 sequence: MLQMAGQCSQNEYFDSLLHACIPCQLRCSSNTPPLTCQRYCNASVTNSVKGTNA
# Biological target: T1, extracellular domain of human BCMA
# Assay: Octet BLI; Fab 200 nM
row,Binder,Kd [nM]
1,"AB200-R1H26-R2Vk1 (Fab, V domains shown) VH: QVQLVQSGAEVKKPGSSVKVSCKASGGSFSNYWMHWVRQAPGQGLEWMGATYRIHSDTFYNQKFKGRVTITADKSTSTAYMELSSLRSEDTAVYYCARGAIYHGYDVLDNWGQGTLVTVSS VL: DIQMTQSPSSLSASVGDRVTITCRASQSISSYLNWYQQKPGKAPKLLIYAASSLQSGVPSRFSGSGSGTDFTLTISSLQPEDFATYYCQQFRKLPWSFGQGTKLEIKR",2.04
2,"AB200-R1H26-R2Vk26 (Fab, V domains shown) VH: QVQLVQSGAEVKKPGSSVKVSCKASGGSFSNYWMHWVRQAPGQGLEWMGATYRIHSDTFYNQKFKGRVTITADKSTSTAYMELSSLRSEDTAVYYCARGAIYHGYDVLDNWGQGTLVTVSS VL: DIQMTQSPSSLSASVGDRVTITCRASQSISSYLNWYQQKPGKAPKLLIYATSNIQSGVPSRFSGSGSGTDFTLTISSLQPEDFATYYCQQFRRLPWTFGQGTKLEIKR",1.46
3,"AB200-R1H26-R2Vk21 (Fab, V domains shown) VH: QVQLVQSGAEVKKPGSSVKVSCKASGGSFSNYWMHWVRQAPGQGLEWMGATYRIHSDTFYNQKFKGRVTITADKSTSTAYMELSSLRSEDTAVYYCARGAIYHGYDVLDNWGQGTLVTVSS VL: DIQMTQSPSSLSASVGDRVTITCRASQSISSYLNWYQQKPGKAPKLLIYATSNLQSGVPSRFSGSGSGTDFTLTISSLQPEDFATYYCQQFRRLPWTFGQGTKLEIKR",1.27
4,"AB200-R1H26-R2Vk12 (Fab, V domains shown) VH: QVQLVQSGAEVKKPGSSVKVSCKASGGSFSNYWMHWVRQAPGQGLEWMGATYRIHSDTFYNQKFKGRVTITADKSTSTAYMELSSLRSEDTAVYYCARGAIYHGYDVLDNWGQGTLVTVSS VL: DIQMTQSPSSLSASVGDRVTITCRASQSISSYLNWYQQKPGKAPKLLIYAASSLQSGVPSRFSGSGSGTDFTLTISSLQPEDFATYYCQQYRKIPWSFGQGTKLEIKR",3.72
5,"AB200-R1H26-R2Vk19 (Fab, V domains shown) VH: QVQLVQSGAEVKKPGSSVKVSCKASGGSFSNYWMHWVRQAPGQGLEWMGATYRIHSDTFYNQKFKGRVTITADKSTSTAYMELSSLRSEDTAVYYCARGAIYHGYDVLDNWGQGTLVTVSS VL: DIQMTQSPSSLSASVGDRVTITCRASQSISSYLNWYQQKPGKAPKLLIYATSNLQSGVPSRFSGSGSGTDFTLTISSLQPEDFATYYCQQYRRLPWSFGQGTKLEIKR",1.62
6,"AB200-R1H26-R2Vk10 (Fab, V domains shown) VH: QVQLVQSGAEVKKPGSSVKVSCKASGGSFSNYWMHWVRQAPGQGLEWMGATYRIHSDTFYNQKFKGRVTITADKSTSTAYMELSSLRSEDTAVYYCARGAIYHGYDVLDNWGQGTLVTVSS VL: DIQMTQSPSSLSASVGDRVTITCRASQSISSYLNWYQQKPGKAPKLLIYAASSLQSGVPSRFSGSGSGTDFTLTISSLQPEDFATYYCQQYRRIPWTFGQGTKLEIKR",3.23
7,"AB200-R1H26-R2Vk28 (Fab, V domains shown) VH: QVQLVQSGAEVKKPGSSVKVSCKASGGSFSNYWMHWVRQAPGQGLEWMGATYRIHSDTFYNQKFKGRVTITADKSTSTAYMELSSLRSEDTAVYYCARGAIYHGYDVLDNWGQGTLVTVSS VL: DIQMTQSPSSLSASVGDRVTITCRASQSISSYLNWYQQKPGKAPKLLIYATSNIQSGVPSRFSGSGSGTDFTLTISSLQPEDFATYYCQQFRKIPWTFGQGTKLEIKR",2.68
8,"AB200-R1H26-R2Vk8 (Fab, V domains shown) VH: QVQLVQSGAEVKKPGSSVKVSCKASGGSFSNYWMHWVRQAPGQGLEWMGATYRIHSDTFYNQKFKGRVTITADKSTSTAYMELSSLRSEDTAVYYCARGAIYHGYDVLDNWGQGTLVTVSS VL: DIQMTQSPSSLSASVGDRVTITCRASQSISSYINWYQQKPGKAPKLLIYATSNLQIGVPSRFSGSGSGTDFTLTISSLQPEDFATYYCQQFRKLPWSFGQGTKLEIKR",1.69
9,"AB200-R1H26-R2Vk22 (Fab, V domains shown) VH: QVQLVQSGAEVKKPGSSVKVSCKASGGSFSNYWMHWVRQAPGQGLEWMGATYRIHSDTFYNQKFKGRVTITADKSTSTAYMELSSLRSEDTAVYYCARGAIYHGYDVLDNWGQGTLVTVSS VL: DIQMTQSPSSLSASVGDRVTITCRASQSISSYLNWYQQKPGKAPKLLIYATSNLQSGVPSRFSGSGSGTDFTLTISSLQPEDFATYYCQQYRKIPWSFGQGTKLEIKR",2.24
10,"AB200-R1H26-R2Vk13 (Fab, V domains shown) VH: QVQLVQSGAEVKKPGSSVKVSCKASGGSFSNYWMHWVRQAPGQGLEWMGATYRIHSDTFYNQKFKGRVTITADKSTSTAYMELSSLRSEDTAVYYCARGAIYHGYDVLDNWGQGTLVTVSS VL: DIQMTQSPSSLSASVGDRVTITCRASQSISSYLNWYQQKPGKAPKLLIYAASSLQSGVPSRFSGSGSGTDFTLTISSLQPEDFATYYCQQFRKIPWTFGQGTKLEIKR",3.02
11,"AB200-R1H26-R2Vk20 (Fab, V domains shown) VH: QVQLVQSGAEVKKPGSSVKVSCKASGGSFSNYWMHWVRQAPGQGLEWMGATYRIHSDTFYNQKFKGRVTITADKSTSTAYMELSSLRSEDTAVYYCARGAIYHGYDVLDNWGQGTLVTVSS VL: DIQMTQSPSSLSASVGDRVTITCRASQSISSYLNWYQQKPGKAPKLLIYATSNLQSGVPSRFSGSGSGTDFTLTISSLQPEDFATYYCQQYRRIPWTFGQGTKLEIKR",2.1
12,"AB200-R1H26-R2Vk27 (Fab, V domains shown) VH: QVQLVQSGAEVKKPGSSVKVSCKASGGSFSNYWMHWVRQAPGQGLEWMGATYRIHSDTFYNQKFKGRVTITADKSTSTAYMELSSLRSEDTAVYYCARGAIYHGYDVLDNWGQGTLVTVSS VL: DIQMTQSPSSLSASVGDRVTITCRASQSISSYLNWYQQKPGKAPKLLIYATSNIQSGVPSRFSGSGSGTDFTLTISSLQPEDFATYYCQQYRKIPWSFGQGTKLEIKR",2.33
13,"AB200-R1H26-R2Vk24 (Fab, V domains shown) VH: QVQLVQSGAEVKKPGSSVKVSCKASGGSFSNYWMHWVRQAPGQGLEWMGATYRIHSDTFYNQKFKGRVTITADKSTSTAYMELSSLRSEDTAVYYCARGAIYHGYDVLDNWGQGTLVTVSS VL: DIQMTQSPSSLSASVGDRVTITCRASQSISSYLNWYQQKPGKAPKLLIYATSNIQSGVPSRFSGSGSGTDFTLTISSLQPEDFATYYCQQYRRLPWSFGQGTKLEIKR",1.62
14,"AB200-R1H26-R2Vk3 (Fab, V domains shown) VH: QVQLVQSGAEVKKPGSSVKVSCKASGGSFSNYWMHWVRQAPGQGLEWMGATYRIHSDTFYNQKFKGRVTITADKSTSTAYMELSSLRSEDTAVYYCARGAIYHGYDVLDNWGQGTLVTVSS VL: DIQMTQSPSSLSASVGDRVTITCRASQSISSYLNWYQQKPGKAPKLLIYATSNLQSGVPSRFSGSGSGTDFTLTISSLQPEDFATYYCQQFRKLPWSFGQGTKLEIKR",1.62
15,"AB200-R1H26-R2Vk7 (Fab, V domains shown) VH: QVQLVQSGAEVKKPGSSVKVSCKASGGSFSNYWMHWVRQAPGQGLEWMGATYRIHSDTFYNQKFKGRVTITADKSTSTAYMELSSLRSEDTAVYYCARGAIYHGYDVLDNWGQGTLVTVSS VL: DIQMTQSPSSLSASVGDRVTITCRASQSISSYINWYQQKPGKAPKLLIYATSNIQSGVPSRFSGSGSGTDFTLTISSLQPEDFATYYCQQFRKLPWSFGQGTKLEIKR",2.17
16,"AB200-R1H26-R2Vk11 (Fab, V domains shown) VH: QVQLVQSGAEVKKPGSSVKVSCKASGGSFSNYWMHWVRQAPGQGLEWMGATYRIHSDTFYNQKFKGRVTITADKSTSTAYMELSSLRSEDTAVYYCARGAIYHGYDVLDNWGQGTLVTVSS VL: DIQMTQSPSSLSASVGDRVTITCRASQSISSYLNWYQQKPGKAPKLLIYAASSLQSGVPSRFSGSGSGTDFTLTISSLQPEDFATYYCQQFRRLPWTFGQGTKLEIKR",1.55
17,"AB200-R1H26-R2Vk5 (Fab, V domains shown) VH: QVQLVQSGAEVKKPGSSVKVSCKASGGSFSNYWMHWVRQAPGQGLEWMGATYRIHSDTFYNQKFKGRVTITADKSTSTAYMELSSLRSEDTAVYYCARGAIYHGYDVLDNWGQGTLVTVSS VL: DIQMTQSPSSLSASVGDRVTITCRASQSISSYLNWYQQKPGKAPKLLIYATSNLQIGVPSRFSGSGSGTDFTLTISSLQPEDFATYYCQQFRKLPWSFGQGTKLEIKR",1.29
18,"AB200-R1H26-R2Vk6 (Fab, V domains shown) VH: QVQLVQSGAEVKKPGSSVKVSCKASGGSFSNYWMHWVRQAPGQGLEWMGATYRIHSDTFYNQKFKGRVTITADKSTSTAYMELSSLRSEDTAVYYCARGAIYHGYDVLDNWGQGTLVTVSS VL: DIQMTQSPSSLSASVGDRVTITCRASQSISSYINWYQQKPGKAPKLLIYATSNLQSGVPSRFSGSGSGTDFTLTISSLQPEDFATYYCQQFRKLPWSFGQGTKLEIKR",2.08
19,"AB200-R1H26-R2Vk25 (Fab, V domains shown) VH: QVQLVQSGAEVKKPGSSVKVSCKASGGSFSNYWMHWVRQAPGQGLEWMGATYRIHSDTFYNQKFKGRVTITADKSTSTAYMELSSLRSEDTAVYYCARGAIYHGYDVLDNWGQGTLVTVSS VL: DIQMTQSPSSLSASVGDRVTITCRASQSISSYLNWYQQKPGKAPKLLIYATSNIQSGVPSRFSGSGSGTDFTLTISSLQPEDFATYYCQQYRRIPWTFGQGTKLEIKR",2.04
20,"AB200-R1H26-R2Vk4 (Fab, V domains shown) VH: QVQLVQSGAEVKKPGSSVKVSCKASGGSFSNYWMHWVRQAPGQGLEWMGATYRIHSDTFYNQKFKGRVTITADKSTSTAYMELSSLRSEDTAVYYCARGAIYHGYDVLDNWGQGTLVTVSS VL: DIQMTQSPSSLSASVGDRVTITCRASQSISSYLNWYQQKPGKAPKLLIYATSNIQSGVPSRFSGSGSGTDFTLTISSLQPEDFATYYCQQFRKLPWSFGQGTKLEIKR",1.7
21,"AB200-R1H26-R2Vk9 (Fab, V domains shown) VH: QVQLVQSGAEVKKPGSSVKVSCKASGGSFSNYWMHWVRQAPGQGLEWMGATYRIHSDTFYNQKFKGRVTITADKSTSTAYMELSSLRSEDTAVYYCARGAIYHGYDVLDNWGQGTLVTVSS VL: DIQMTQSPSSLSASVGDRVTITCRASQSISSYLNWYQQKPGKAPKLLIYAASSLQSGVPSRFSGSGSGTDFTLTISSLQPEDFATYYCQQYRRLPWSFGQGTKLEIKR",2.35
22,"AB200-R1H26-R2Vk23 (Fab, V domains shown) VH: QVQLVQSGAEVKKPGSSVKVSCKASGGSFSNYWMHWVRQAPGQGLEWMGATYRIHSDTFYNQKFKGRVTITADKSTSTAYMELSSLRSEDTAVYYCARGAIYHGYDVLDNWGQGTLVTVSS VL: DIQMTQSPSSLSASVGDRVTITCRASQSISSYLNWYQQKPGKAPKLLIYATSNLQSGVPSRFSGSGSGTDFTLTISSLQPEDFATYYCQQFRKIPWTFGQGTKLEIKR",2.28
